Residue numbers refer to the chain shown, from its start.
B1: mAb 192 (antibody, V domains shown)
VH: QVQLVESGGGVVQPGRSLRLSCAASGFTFSGYGMHWVRQAPGKGLEWVAIIYYNGKKEYYADSVKGRFTISRDNSKNTLYLQMNSLRAEDTAVYYCTRGEGYNWFDPWGQGILVTVSS
VL: EIVMTQSPATLSVSPGERATLSCRASQSVSSNLAWYQQKPGQAPRLLIYGASTRATGIPARFSGSGSGTEFTLTISSLQSEDFAVYYCKQYKNWPLTFGGGTKVEIK
notes: VH/VL only
B2: mAb 204 (antibody, V domains shown)
VH: B1 VH with P14S, I51V, N54D, K57N, E58K, T97V, I112T
VL: B1 VL with A43V, E70Q, K89Q, K92N
notes: VH/VL only
B3: mAb 197 (antibody, V domains shown)
VH: B1 VH with R16G, Y52W, K56R, E58T, D62E, Y80S, A88V, R98T, E100Q, I112T
VL: B1 VL with K89Q, Y91F, K92N, N93A, V104M
notes: VH/VL only
B4: mAb 198 (antibody, V domains shown)
VH: B1 VH with R16G, Y52W, K56R, E58T, D62E, Y80S, A88I, R98T, E100Q, I112T
VL: B1 VL with K89Q, Y91F, K92N, N93A, V104M
notes: VH/VL only
B5: mAb 205 (antibody, V domains shown)
VH: B1 VH with R16K, I112T
VL: B1 VL with K92N
notes: VH/VL only
B6: mAb 217 (antibody, V domains shown)
VH: B1 VH with S71F, L79V, N84K, I112T
VL: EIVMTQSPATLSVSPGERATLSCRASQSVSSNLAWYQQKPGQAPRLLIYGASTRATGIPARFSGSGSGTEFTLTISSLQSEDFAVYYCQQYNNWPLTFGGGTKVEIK
notes: VH/VL only
B7: mAb 216 (antibody, V domains shown)
VH: B1 VH with I112T
VL: B1 VL
notes: VH/VL only
B8: mAb 201 (antibody, V domains shown)
VH: B1 VH with I112T
VL: B1 VL with N32S, K89Q, K92N
notes: VH/VL only
B9: mAb 203 (antibody, V domains shown)
VH: B1 VH with R16G, S30R, K56R, E58T, D62E, Y80S, A88V, R98A, E100Q, I112T
VL: B1 VL with K89Q, Y91F, K92N, N93A, V104M
notes: VH/VL only
B10: mAb 209 (antibody, V domains shown)
VH: B1 VH with I70V, T78M, I112T
VL: B1 VL with S28T, K92N, W94R
notes: VH/VL only
B11: mAb 199 (antibody, V domains shown)
VH: B1 VH with S71F, Q82H, I112T
VL: B1 VL with S31R, K89Q, K92N
notes: VH/VL only

target: T1, cynomolgus monkey CD3 expressed on cyno primary T cells (cynomolgus monkey, UniProt Q95LI5 22-198; Q95LI8 22-171; Q95LI7 23-181); assay: flow cytometry, cyno primary T cells
T1 construct: whole, on cells; CD3 complex on purified cynomolgus monkey CD3 pan T cells; also called cyno CD3
Procedure, shortened: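 Binding reported as fold over isotype: median fluorescence intensity divided by isotype control, with ≥10 scored positive. Cells were exposed to 25 nM antibody in PBS/2% FBS, 30 min, 4 °C, before flow cytometric read-out.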

T1 sequence (Q95LI5 22-198, chain 1 of 3): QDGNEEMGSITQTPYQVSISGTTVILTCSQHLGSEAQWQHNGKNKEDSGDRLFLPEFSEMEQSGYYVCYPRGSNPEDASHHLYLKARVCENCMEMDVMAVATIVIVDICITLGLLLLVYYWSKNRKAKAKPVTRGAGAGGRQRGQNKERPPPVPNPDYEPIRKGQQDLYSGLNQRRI
T1 sequence (Q95LI8 22-171, chain 2 of 3): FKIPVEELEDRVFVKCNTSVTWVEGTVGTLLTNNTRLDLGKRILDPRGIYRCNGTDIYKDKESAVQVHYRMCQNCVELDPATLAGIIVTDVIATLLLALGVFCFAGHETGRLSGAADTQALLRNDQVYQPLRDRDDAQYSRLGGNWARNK
T1 sequence (Q95LI7 23-181, chain 3 of 3): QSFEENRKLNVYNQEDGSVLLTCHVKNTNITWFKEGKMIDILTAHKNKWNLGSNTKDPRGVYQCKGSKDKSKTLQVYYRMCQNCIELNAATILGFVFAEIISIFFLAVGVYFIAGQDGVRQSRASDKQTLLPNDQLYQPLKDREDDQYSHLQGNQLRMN

Binder	binding result
B1	no binding (tested: FOI <10 (FOI >=10 = positive); 25 nM)
B2	no binding (tested: FOI <10 (FOI >=10 = positive); 25 nM)
B3	no binding (tested: FOI <10 (FOI >=10 = positive); 25 nM)
B4	no binding (tested: FOI <10 (FOI >=10 = positive); 25 nM)
B5	no binding (tested: FOI <10 (FOI >=10 = positive); 25 nM)
B6	no binding (tested: FOI <10 (FOI >=10 = positive); 25 nM)
B7	no binding (tested: FOI <10 (FOI >=10 = positive); 25 nM)
B8	no binding (tested: FOI <10 (FOI >=10 = positive); 25 nM)
B9	no binding (tested: FOI <10 (FOI >=10 = positive); 25 nM)
B10	no binding (tested: FOI <10 (FOI >=10 = positive); 25 nM)
B11	no binding (tested: FOI <10 (FOI >=10 = positive); 25 nM)

target: T2, human CD3 expressed on cells (Jurkat cells; human primary T cells) (human, UniProt P07766 23-207; P04234 22-171; P09693 23-182); assay: flow cytometry, 25 nM, human primary T cells
T2 construct: whole, on cells
Description: (§1) Purified antibodies were confirmed to bind CD3 expressed on cells using the CytoFLEX S or LX flow cytometers (Beckman Coulter). Antibodies were diluted to 25 nM in FACS buffer (PBS+2% FBS) and were incubated with CD3-expressing cells for 30 minutes at 4° C. […] The median fluorescence intensity of the binding signal for each antibody was normalized to the isotype control to obtain a fold over isotype value. An antibody with a fold over isotype (FOI) of ≥10 was considered to be positive for binding.

T2 sequence (P07766 23-207, chain 1 of 3): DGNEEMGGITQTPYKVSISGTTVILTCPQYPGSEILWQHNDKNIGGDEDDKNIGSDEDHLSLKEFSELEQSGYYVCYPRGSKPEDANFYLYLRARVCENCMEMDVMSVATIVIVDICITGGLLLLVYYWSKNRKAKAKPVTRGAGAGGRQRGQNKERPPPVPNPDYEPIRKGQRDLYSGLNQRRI
T2 sequence (P04234 22-171, chain 2 of 3): as the sequence (Q95LI8 22-171, chain 2 of 3) above, with V5I, K15N, V20I, T32S, N33D, N34I, A64T, N74S, L83V, R141H counted along it
T2 sequence (P09693 23-182, chain 3 of 3): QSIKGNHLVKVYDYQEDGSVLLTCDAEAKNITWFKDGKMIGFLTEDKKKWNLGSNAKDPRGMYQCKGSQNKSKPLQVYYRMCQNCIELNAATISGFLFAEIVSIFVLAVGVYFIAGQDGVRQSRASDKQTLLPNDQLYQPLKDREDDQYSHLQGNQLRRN

Binding (FOI)	Binder
223 FOI	B1
181 FOI	B2
260 FOI	B3
231 FOI	B4
216 FOI	B5
214 FOI	B6
218 FOI	B7
210 FOI	B8
285 FOI	B9
228 FOI	B10
225 FOI	B11

target: T2, human CD3 expressed on cells (Jurkat …); assay: flow cytometry, 25 nM, Jurkat cells
Description: as §1

Binding (FOI)	Binder
176 FOI	B1
162 FOI	B2
183 FOI	B3
182 FOI	B4
180 FOI	B5
173 FOI	B6
182 FOI	B7
166 FOI	B8
201 FOI	B9
186 FOI	B10
172 FOI	B11
